Data published in paper PMC6048717.

Target: α-synuclein wild-type (UniProt P37840)
Test: seeded fibril elongation kinetics

- elongation rate constant k+ (monomer addition to AS(WT) seed fibril ends): 2780 M⁻¹ s⁻¹
Substance: α-synuclein C-terminally truncated variant AS(1-119) (from UniProt P37840 1-119) (domain or fragment)
